Test results taken from patent publication US6057104.
One block for each substance: values may come before it.

Columns and labels:
[1] = biological target: MmRad51, full length, fused to the GAL4 DNA-binding domain (the "bait") (mouse); assay: yeast two-hybrid in HF7c cells, full length MmRad51 bait; relative to full length MmRad51 prey as 100%
[2] = biological target: MmRad51, full length, fused to the GAL4 DNA-binding domain (the "bait") (mouse); assay: yeast two-hybrid in HF7c cells, full length MmRad51 bait, X-gal staining
[3] = biological target: MmRad51, full length, fused to the GAL4 DNA-binding domain (the "bait") (mouse); assay: yeast two-hybrid in HF7c cells, full length MmRad51 bait; relative to the positive control
[4] = biological target: MmRad51, full length, fused to the GAL4 DNA-binding domain (the "bait") (mouse); assay: yeast two-hybrid in HF7c cells, full length MmRad51 bait; the reference of the scale
[5] = biological target: mammalian Rad51 (MmRad51), wild-type protein of the cells (mouse)
[6] = biological target: MmRad51, full length, fused to the GAL4 DNA-binding domain (the "bait") (mouse); assay: yeast two-hybrid against full length MmRad51

Substance: MmRad51 deletion TR1-93, as two-hybrid prey
relative β-galactosidase activity [1]: 4%
time until yeast cells stained blue [2]: 30 min

Substance: MmRad51 deletion TR1-175, as two-hybrid prey
relative β-galactosidase activity [3]: 9%

Substance: MmRad51 deletion TR43-339, as two-hybrid prey
relative β-galactosidase activity [1]: 1

Substance: MmRad51 deletion TR131-339, as two-hybrid prey
relative β-galactosidase activity [1]: 1

Substance: altered Rad51 product encoded by rad51K-A134, expressed in ES cells
relative targeting frequency (TG^r +G418^r /G418^r colonies) at HPRT in ES cells, IVH-tk as 100% [5]: 54%

Substance: rad51K-A134 product, as tested in the yeast two-hybrid system
relative β-galactosidase activity [6]: 90%

The remaining lines, values ahead:

relative β-galactosidase activity [1]: 43%
time until yeast cells stained blue [2]: < 5 min
Substance: MmRad51 deletion TR1-43, as two-hybrid prey

relative β-galactosidase activity [3]: 11%
Substance: MmRad51 deletion TR1-131, as two-hybrid prey

relative β-galactosidase activity [4]: 100%
Substance: MmRad51, full length, as two-hybrid prey
